From US11471462B2, “Compositions and methods for detecting and treating diabetes” (THE BROAD INSTITUTE, INC., priority 2016, dated 2022)

What follows are molecules tested on SLC16A11 (assay: SLC16A11 protein-protein interaction study (immunoprecipitation, quantitative mass spectrometry)). Settings: putative SLC16A11^REF interaction partners; immunoprecipitation from HEK293T cells vs empty vector control; Blandt-Altman.
Parameters: species or system human
Excerpt: Alternatively, these variants may result in reduced transport because they disrupt protein-protein interactions responsible for correct SLC16A11 function. To explore this possibility, SLC16A11 was immunoprecipitated from HEK293T cells expressing either REF or T2D risk SLC16A11-V5 or empty vector control and quantitative mass spectrometry was used to define the SLC16A11 interactome.
Another mechanism through which the variants could affect activity is through disruption of protein-protein interactions. To explore this possibility, quantitative mass spectrometry-based protein-protein interaction studies were performed to define the SLC16A11 interactome and evaluate if the T2D risk coding variants alter any interactions.
Beads were then washed once with lysis buffer and three times with wash buffer. After the last wash, residual wash buffer was removed, 10 μL fresh wash buffer was added, and beads were stored at −80° C. until analysis by the Proteomics Platform at the Broad Institute, as detailed in the “Proteomics Methods for SLC16A11 Protein Interaction Studies” below.
The beads from immunopurification were washed once with IP lysis buffer, then three times with PBS, the three different lysates of each replicate were resuspended in 90 uL digestion buffer (2M Urea, 50 mM Tris HCl), 2 ug of sequencing grade trypsin added, 1 hour shaking at 700 rpm. The supernatant was removed and placed in a fresh tube. The beads were then washed twice with 50 uL digestion buffer and combined with the supernatant. The combined supernatants were reduced (2 uL 500 mM DTT, 30 minutes, RT), alkylated (4 uL 500 mM IAA, 45 minutes, dark) and a longer overnight digestion performed: 2 ug (4 uL) trypsin, shake o/n, The samples were then quenched with 20 uL 10% FA and desalted on 10 mg SepPak columns.
Desalted peptides were labelled with iTRAQ reagents according to the manufacturer's instructions (AB Sciex, Foster City, Calif.). Peptides were dissolved in 30 μl of 0.5 M TEAB pH 8.5 solution and labeling reagent was added in 70 ul of ethanol. After 1 h incubation the reaction was stopped with 50 mM Tris/HCl pH 7.5. Differentially labelled peptides were mixed and subsequently desalted on 10 mg SepPak columns.
Reconstituted peptides were separated on an online nanoflow EASY-nLC 1000 UHPLC system (Thermo Fisher Scientific) and analyzed on a benchtop Orbitrap Q Exactive Plus mass spectrometer (Thermo Fisher Scientific). The peptide samples were injected onto a capillary column (Picofrit with 10 μm tip opening/75 μm diameter, New Objective, PF360-75-10-N-5) packed in-house with 20 cm C18 silica material (1.9 μm ReproSil-Pur C18-AQ medium, Dr. Maisch GmbH, r119.aq). The UHPLC setup was connected with a custom-fit microadapting tee (360 μm, IDEX Health & Science, UH-753), and capillary columns were heated to 50° C. in column heater sleeves (Phoenix-ST) to reduce backpressure during UHPLC separation. Injected peptides were separated at a flow rate of 200 nL/min with a linear 80 min gradient from 100% solvent A (3% acetonitrile, 0.1% formic acid) to 30% solvent B (90% acetonitrile, 0.1% formic acid), followed by a linear 6 min gradient from 30% solvent B to 90% solvent B. Each sample was run for 120 min, including sample loading and column equilibration times. The Q Exactive instrument was operated in the data-dependent mode acquiring HCD MS/MS scans (R=17,500) after each MS1 scan (R=70,000) on the 12 top most abundant ions using an MS1 ion target of 3×10^6 ions and an MS2 target of 5×10^4 ions. The maximum ion time utilized for the MS/MS scans was 120 ms; the HCD-normalized collision energy was set to 27; the dynamic exclusion time was set to 20 s, and the peptide match and isotope exclusion functions were enabled.
All mass spectra were processed using the Spectrum Mill software package v6.0 pre-release (Agilent Technologies) which includes modules developed by us for iTRAQ-based quantification. […]

| Molecule | BA log fold change |
| --- | --- |
| TECR (protein) MKHYEVEILDAKTREKLCFLDKVEPHATIAEIKNLFTKTHPQWYPARQSLRLDPKGKSLKDEDVLQKLPVGTTATLYFRDLGAQISWVTVFLTEYAGPLFIYLLFYFRVPFIYGHKYDFTSSRHTVVHLACICHSFHYIKRLLETLFVHRFSHGTMPLRNIFKNCTYYWGFAAWMAYYINHPLYTPPTYGAQQVKLALAIFVICQLGNFSIHMALRDLRPAGSKTRKIPYPTKNPFTWLFLLVSCPNYTYEVGSWIGFAIMTQCLPVALFSLVGFTQMTIWAKGKHRSYLKEFRDYPPLRMPIIPFLL | 1.10 |
| MAGED1 (protein) MAQKMDCGAGLLGFQNPDACRAVCHPLPQPPASTLPLSAFPTLCDPPYSQLRDPPAVLSCYCTPLGASPAPAEASVEDSALLMQTLMEAIQISEAPPTNQATAAASPQSSQPPTANEMADIQVSAAAARPKSAFKVQNATTKGPNGVYDFSQAHNAKDVPNTQPKAAFKSQNATPKGPNAAYDFSQAATTGELAANKSEMAFKAQNATTKVGPNATYNFSQSLNANDLANSRPKTPFKAWNDTTKAPTADTQTQNVNQAKMATSQADIETDPGISEPDGATAQTSADGSQAQNLESRTIIRGKRTRKINNLNVEENSSGDQRRAPLAAGTWRSAPVPVTTQNPPGAPPNVLWQTPLAWQNPSGWQNQTARQTPPARQSPPARQTPPAWQNPVAWQNPVIWPNPVIWQNPVIWPNPIVWPGPVVWPNPLAWQNPPGWQTPPGWQTPPGWQGPPDWQGPPDWPLPPDWPLPPDWPLPTDWPLPPDWIPADWPIPPDWQNLRPSPNLRPSPNSRASQNPGAAQPRDVALLQERANKLVKYLMLKDYTKVPIKRSEMLRDIIREYTDVYPEIIERACFVLEKKFGIQLKEIDKEEHLYILISTPESLAGILGTTKDTPKLGLLLVILGVIFMNGNRASEAVLWEALRKMGLRPGVRHPLLGDLRKLLTYEFVKQKYLDYRRVPNSNPPEYEFLWGLRSYHETSKMKVLRFIAEVQKRDPRDWTAQFMEAADEALDALDAAAAEAEARAEARTRMGIGDEAVSGPWSWDDIEFELLTWDEEGDFGDPWSRIPFTFWARYHQNARSRFPQTFAGPIIGPGGTASANFAANFGAIGFFWVE | 1.09 |
| AUP1 (protein) MELPSGPGPERLFDSHRLPGDCFLLLVLLLYAPVGFCLLVLRLFLGIHVFLVSCALPDSVLRRFVVRTMCAVLGLVARQEDSGLRDHSVRVLISNHVTPFDHNIVNLLTTCSTPLLNSPPSFVCWSRGFMEMNGRGELVESLKRFCASTRLPPTPLLLFPEEEATNGREGLLRFSSWPFSIQDVVQPLTLQVQRPLVSVTVSDASWVSELLWSLFVPFTVYQVRWLRPVHRQLGEANEEFALRVQQLVAKELGQTGTRLTPADKAEHMKRQRHPRLRPQSAQSSFPPSPGPSPDVQLATLAQRVKEVLPHVPLGVIQRDLAKTGCVDLTITNLLEGAVAFMPEDITKGTQSLPTASASKFPSSGPVTPQPTALTFAKSSWARQESLQERKQALYEYARRRFTERRAQEAD | 1.10 |
| PHGDH (protein) AFANLRKVLISDSLDPCCRKILQDGGLQVVEKQNLSKEELIAELQDCEGLIVRSATKVTADVINAAEKLQVVGRAGTGVDNVDLEAATRKGILVMNTPNGNSLSAAELTCGMIMCLARQIPQATASMKDGKWERKKFMGTELNGKTLGILGLGRIGREVATRMQSFGMKTIGYDPIISPEVSASFGVQQLPLEEIWPLCDFITVHTPLLPSTTGLLNDNTFAQCKKGVRVVNCARGGIVDEGALLRALQSGQCAGAALDVFTEEPPRDRALVDHENVISCPHLGASTKEAQSRCGEEIAVQFVDMVKGKSLTGVVNAQALTSAFSPHTKPWIGLAEALGTLMRAWAGSPKGTIQVITQGTSLKNAGNCLSPAVIVGLLKEASKQADVNLVNAKLLVKEAGLNVTTSHSPAAPGEQGFGECLLAVALAGAPYQAVGLVQGTTPVLQGLNGAVFRPEVPLRRDLPLLLFRTQTSDPAMLPTMIGLLAEAGVRLLSYQTSLVSDGETWHVMGISSLLPSLEAWKQHVTEAFQFHF | 1.11 |
| ADCK4 (protein) MWLKVGGLLRGTGGQLGQTVGWPCGALGPGPHRWGPCGGSWAQKFYQDGPGRGLGEEDIRRAREARPRKTPRPQLSDRSRERKVPASRISRLANFGGLAVGLGLGVLAEMAKKSMPGGRLQSEGGSGLDSSPFLSEANAERIVQTLCTVRGAALKVGQMLSIQDNSFISPQLQHIFERVRQSADFMPRWQMLRVLEEELGRDWQAKVASLEEVPFAAASIGQVHQGLLRDGTEVAVKIQYPGIAQSIQSDVQNLLAVLKMSAALPAGLFAEQSLQALQQELAWECDYRREAACAQNFRQLLANDPFFRVPAVVKELCTTRVLGMELAGGVPLDQCQGLSQDLRNQICFQLLTLCLRELFEFRFMQTDPNWANFLYDASSHQVTLLDFGASREFGTEFTDHYIEVVKAAADGDRDCVLQKSRDLKFLTGFETKAFSDAHVEAVMILGEPFATQGPYDFGSGETARRIQDLIPVLLRHRLCPPPEETYALHRKLAGAFLACAHLRAHIACRDLFQDTYHRYWASRQPDAATAGSLPTKGDSWVDPS | 1.11 |
| VDAC2 (protein) MSWCNELRLPALKQHSIGRGLESHITMCIPPSYADLGKAARDIFNKGFGFGLVKLDVKTKSCSGVEFSTSGSSNTDTGKVTGTLETKYKWCEYGLTFTEKWNTDNTLGTEIAIEDQICQGLKLTFDTTFSPNTGKKSGKIKSSYKRECINLGCDVDFDFAGPAIHGSAVFGYEGWLAGYQMTFDSAKSKLTRNNFAVGYRTGDFQLHTNVNDGTEFGGSIYQKVCEDLDTSVNLAWTSGTNCTRFGIAAKYQLDPTASISAKVNNSSLIGVGYTQTLRPGVKLTLSALVDGKSINAGGHKVGLALELEA | 1.14 |
| XPO5 (protein) AMDQVNALCEQLVKAVTVMMDPNSTQRYRLEALKFCEEFKEKCPICVPCGLRLAEKTQVAIVRHFGLQILEHVVKFRWNGMSRLEKVYLKNSVMELIANGTLNILEEENHIKDALSRIVVEMIKREWPQHWPDMLIELDTLSKQGETQTELVMFILLRLAEDVVTFQTLPPQRRRDIQQTLTQNMERIFSFLLNTLQENVNKYQQVKTDTSQESKAQANCRVGVAALNTLAGYIDWVSMSHITAENCKLLEILCLLLNEQELQLGAAECLLIAVSRKGKLEDRKPLMVLFGDVAMHYILSAAQTADGGGLVEKHYVFLKRLCQVLCALGNQLCALLGADSDVETPSNFGKYLESFLAFTTHPSQFLRSSTQMTWGALFRHEILSRDPLLLAIIPKYLRASMTNLVKMGFPSKTDSPSCEYSRFDFDSDEDFNAFFNSSRAQQGEVMRLACRLDPKTSFQMAGEWLKYQLSTFLDAGSVNSCSAVGTGEGSLCSVFSPSFVQWEAMTLFLESVITQMFRTLNREEIPVNDGIELLQMVLNFDTKDPLILSCVLTNVSALFPFVTYRPEFLPQVFSKLFSSVTFETVEESKAPRTRAVRNVRRHACSSIIKMCRDYPQLVLPNFDMLYNHVKQLLSNELLLTQMEKCALMEALVLISNQFKNYERQKVFLEELMAPVASIWLSQDMHRVLSDVDAFIAYVGTDQKSCDPGLEDPCGLNRARMSFCVYSILGVVKRTCWPTDLEEAKAGGFVVGYTSSGNPIFRNPCTEQILKLLDNLLALIRTHNTLYAPEMLAKMAEPFTKALDMLDAEKSAILGLPQPLLELNDSPVFKTVLERMQRFFSTLYENCFHILGKAGPSMQQDFYTVEDLATQLLSSAFVNLNNIPDYRLRPMLRVFVKPLVLFCPPEHYEALVSPILGPLFTYLHMRLSQKWQVINQRSLLCGEDEAADENPESQEMLEEQLVRMLTREVMDLITVCCVSKKGADHSSAPPADGDDEEMMATEVTPSAMAELTDLGKCLMKHEDVCTALLITAFNSLAWKDTLSCQRTTSQLCWPLLKQVLSGTLLADAVTWLFTSVLKGLQMHGQHDGCMASLVHLAFQIYEALRPRYLEIRAVMEQIPEIQKDSLDQFDCKLLNPSLQKVADKRRKDQFKRLIAGCIGKPLGEQFRKEVHIKNLPSLFKKTKPMLETEVLDNDGGGLATIFEP | 1.14 |
